From patent US20210139548A1 (published 2021)
*1 amine or outer side, *2 acyl side, *3 side chain or, on linkers, in order; H or OH if unused. Side-chain parts run from the residue outwards. The star is where a group is joined. C18 diacid = O=C(O)CCCCCCCCCCCCCCCCC(=O)*; γGlu = O=C(O)[C@H](CCC(=O)[*:2])N[*:1]; Isovaleryl = CC(C)CC(=O)*; AEEA = NCCOCCOCC(=O)O

T1: human neuropeptide Y2 receptor (human, UniProt P49146 1-381)
T1 construct: whole, on cells; also called hNPY2 receptor; hNPY2-R
T1 sequence (looked up): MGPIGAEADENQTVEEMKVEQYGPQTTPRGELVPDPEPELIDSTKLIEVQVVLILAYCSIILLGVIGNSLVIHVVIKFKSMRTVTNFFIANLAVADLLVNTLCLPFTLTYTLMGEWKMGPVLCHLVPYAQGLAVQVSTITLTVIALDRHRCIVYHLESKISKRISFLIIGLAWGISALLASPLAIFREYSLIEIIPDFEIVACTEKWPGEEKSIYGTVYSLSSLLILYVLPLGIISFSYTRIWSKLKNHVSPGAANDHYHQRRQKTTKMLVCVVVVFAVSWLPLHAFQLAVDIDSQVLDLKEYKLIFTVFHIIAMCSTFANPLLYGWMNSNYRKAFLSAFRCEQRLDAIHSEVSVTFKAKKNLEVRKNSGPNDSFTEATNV

B1: Compound 185 (peptide)
peptide: Isovaleryl-APEK([AEEA-AEEA-γGlu-C18 diacid])PEEEASPEELQRYYVELRHYYNWLTRQRY-NH2
SMILES: CC(C)CC(=O)N[C@@H](C)C(=O)N1CCC[C@H]1C(=O)N[C@@H](CCC(=O)O)C(=O)N[C@@H](CCCCNC(=O)COCCOCCNC(=O)COCCOCCNC(=O)CC[C@H](NC(=O)CCCCCCCCCCCCCCCCC(=O)O)C(=O)O)C(=O)N1CCC[C@H]1C(=O)N[C@@H](CCC(=O)O)C(=O)N[C@@H](CCC(=O)O)C(=O)N[C@@H](CCC(=O)O)C(=O)N[C@@H](C)C(=O)N[C@@H](CO)C(=O)N1CCC[C@H]1C(=O)N[C@@H](CCC(=O)O)C(=O)N[C@@H](CCC(=O)O)C(=O)N[C@@H](CC(C)C)C(=O)N[C@@H](CCC(N)=O)C(=O)N[C@@H](CCCNC(=N)N)C(=O)N[C@@H](Cc1ccc(O)cc1)C(=O)N[C@@H](Cc1ccc(O)cc1)C(=O)N[C@H](C(=O)N[C@@H](CCC(=O)O)C(=O)N[C@@H](CC(C)C)C(=O)N[C@@H](CCCNC(=N)N)C(=O)N[C@@H](Cc1c[nH]cn1)C(=O)N[C@@H](Cc1ccc(O)cc1)C(=O)N[C@@H](Cc1ccc(O)cc1)C(=O)N[C@@H](CC(N)=O)C(=O)N[C@@H](Cc1c[nH]c2ccccc12)C(=O)N[C@@H](CC(C)C)C(=O)N[C@H](C(=O)N[C@@H](CCCNC(=N)N)C(=O)N[C@@H](CCC(N)=O)C(=O)N[C@@H](CCCNC(=N)N)C(=O)N[C@@H](Cc1ccc(O)cc1)C(N)=O)[C@@H](C)O)C(C)C
B2: Compound 187 (peptide)
peptide: Isovaleryl-APEK([AEEA-AEEA-γGlu-C18 diacid])PEEDASPEELQRYYVSLRHQYNWLTRQRY-NH2
SMILES: CC(C)CC(=O)N[C@@H](C)C(=O)N1CCC[C@H]1C(=O)N[C@@H](CCC(=O)O)C(=O)N[C@@H](CCCCNC(=O)COCCOCCNC(=O)COCCOCCNC(=O)CC[C@H](NC(=O)CCCCCCCCCCCCCCCCC(=O)O)C(=O)O)C(=O)N1CCC[C@H]1C(=O)N[C@@H](CCC(=O)O)C(=O)N[C@@H](CCC(=O)O)C(=O)N[C@@H](CC(=O)O)C(=O)N[C@@H](C)C(=O)N[C@@H](CO)C(=O)N1CCC[C@H]1C(=O)N[C@@H](CCC(=O)O)C(=O)N[C@@H](CCC(=O)O)C(=O)N[C@@H](CC(C)C)C(=O)N[C@@H](CCC(N)=O)C(=O)N[C@@H](CCCNC(=N)N)C(=O)N[C@@H](Cc1ccc(O)cc1)C(=O)N[C@@H](Cc1ccc(O)cc1)C(=O)N[C@H](C(=O)N[C@@H](CO)C(=O)N[C@@H](CC(C)C)C(=O)N[C@@H](CCCNC(=N)N)C(=O)N[C@@H](Cc1c[nH]cn1)C(=O)N[C@@H](CCC(N)=O)C(=O)N[C@@H](Cc1ccc(O)cc1)C(=O)N[C@@H](CC(N)=O)C(=O)N[C@@H](Cc1c[nH]c2ccccc12)C(=O)N[C@@H](CC(C)C)C(=O)N[C@H](C(=O)N[C@@H](CCCNC(=N)N)C(=O)N[C@@H](CCC(N)=O)C(=O)N[C@@H](CCCNC(=N)N)C(=O)N[C@@H](Cc1ccc(O)cc1)C(N)=O)[C@@H](C)O)C(C)C
B3: Compound 189 (peptide)
peptide: Isovaleryl-APEK([AEEA-AEEA-γGlu-C18 diacid])PEEDASEAELQRYYVSLRHYYNWLTRQRY-NH2
SMILES: CC(C)CC(=O)N[C@@H](C)C(=O)N1CCC[C@H]1C(=O)N[C@@H](CCC(=O)O)C(=O)N[C@@H](CCCCNC(=O)COCCOCCNC(=O)COCCOCCNC(=O)CC[C@H](NC(=O)CCCCCCCCCCCCCCCCC(=O)O)C(=O)O)C(=O)N1CCC[C@H]1C(=O)N[C@@H](CCC(=O)O)C(=O)N[C@@H](CCC(=O)O)C(=O)N[C@@H](CC(=O)O)C(=O)N[C@@H](C)C(=O)N[C@@H](CO)C(=O)N[C@@H](CCC(=O)O)C(=O)N[C@@H](C)C(=O)N[C@@H](CCC(=O)O)C(=O)N[C@@H](CC(C)C)C(=O)N[C@@H](CCC(N)=O)C(=O)N[C@@H](CCCNC(=N)N)C(=O)N[C@@H](Cc1ccc(O)cc1)C(=O)N[C@@H](Cc1ccc(O)cc1)C(=O)N[C@H](C(=O)N[C@@H](CO)C(=O)N[C@@H](CC(C)C)C(=O)N[C@@H](CCCNC(=N)N)C(=O)N[C@@H](Cc1c[nH]cn1)C(=O)N[C@@H](Cc1ccc(O)cc1)C(=O)N[C@@H](Cc1ccc(O)cc1)C(=O)N[C@@H](CC(N)=O)C(=O)N[C@@H](Cc1c[nH]c2ccccc12)C(=O)N[C@@H](CC(C)C)C(=O)N[C@H](C(=O)N[C@@H](CCCNC(=N)N)C(=O)N[C@@H](CCC(N)=O)C(=O)N[C@@H](CCCNC(=N)N)C(=O)N[C@@H](Cc1ccc(O)cc1)C(N)=O)[C@@H](C)O)C(C)C
B4: Compound 191 (peptide)
peptide: Isovaleryl-APEK([AEEA-AEEA-γGlu-C18 diacid])PEEDASPEELQRYYISLRHYYNWLTRQRY-NH2
SMILES: CC[C@H](C)[C@H](NC(=O)[C@H](Cc1ccc(O)cc1)NC(=O)[C@H](Cc1ccc(O)cc1)NC(=O)[C@H](CCCNC(=N)N)NC(=O)[C@H](CCC(N)=O)NC(=O)[C@H](CC(C)C)NC(=O)[C@H](CCC(=O)O)NC(=O)[C@H](CCC(=O)O)NC(=O)[C@@H]1CCCN1C(=O)[C@H](CO)NC(=O)[C@H](C)NC(=O)[C@H](CC(=O)O)NC(=O)[C@H](CCC(=O)O)NC(=O)[C@H](CCC(=O)O)NC(=O)[C@@H]1CCCN1C(=O)[C@H](CCCCNC(=O)COCCOCCNC(=O)COCCOCCNC(=O)CC[C@H](NC(=O)CCCCCCCCCCCCCCCCC(=O)O)C(=O)O)NC(=O)[C@H](CCC(=O)O)NC(=O)[C@@H]1CCCN1C(=O)[C@H](C)NC(=O)CC(C)C)C(=O)N[C@@H](CO)C(=O)N[C@@H](CC(C)C)C(=O)N[C@@H](CCCNC(=N)N)C(=O)N[C@@H](Cc1c[nH]cn1)C(=O)N[C@@H](Cc1ccc(O)cc1)C(=O)N[C@@H](Cc1ccc(O)cc1)C(=O)N[C@@H](CC(N)=O)C(=O)N[C@@H](Cc1c[nH]c2ccccc12)C(=O)N[C@@H](CC(C)C)C(=O)N[C@H](C(=O)N[C@@H](CCCNC(=N)N)C(=O)N[C@@H](CCC(N)=O)C(=O)N[C@@H](CCCNC(=N)N)C(=O)N[C@@H](Cc1ccc(O)cc1)C(N)=O)[C@@H](C)O
B5: Compound 192 (peptide)
peptide: Isovaleryl-APEK([AEEA-AEEA-γGlu-C18 diacid])PEEDAAPAELQRYYVSLRHYYNWLTRQRY-NH2
SMILES: CC(C)CC(=O)N[C@@H](C)C(=O)N1CCC[C@H]1C(=O)N[C@@H](CCC(=O)O)C(=O)N[C@@H](CCCCNC(=O)COCCOCCNC(=O)COCCOCCNC(=O)CC[C@H](NC(=O)CCCCCCCCCCCCCCCCC(=O)O)C(=O)O)C(=O)N1CCC[C@H]1C(=O)N[C@@H](CCC(=O)O)C(=O)N[C@@H](CCC(=O)O)C(=O)N[C@@H](CC(=O)O)C(=O)N[C@@H](C)C(=O)N[C@@H](C)C(=O)N1CCC[C@H]1C(=O)N[C@@H](C)C(=O)N[C@@H](CCC(=O)O)C(=O)N[C@@H](CC(C)C)C(=O)N[C@@H](CCC(N)=O)C(=O)N[C@@H](CCCNC(=N)N)C(=O)N[C@@H](Cc1ccc(O)cc1)C(=O)N[C@@H](Cc1ccc(O)cc1)C(=O)N[C@H](C(=O)N[C@@H](CO)C(=O)N[C@@H](CC(C)C)C(=O)N[C@@H](CCCNC(=N)N)C(=O)N[C@@H](Cc1c[nH]cn1)C(=O)N[C@@H](Cc1ccc(O)cc1)C(=O)N[C@@H](Cc1ccc(O)cc1)C(=O)N[C@@H](CC(N)=O)C(=O)N[C@@H](Cc1c[nH]c2ccccc12)C(=O)N[C@@H](CC(C)C)C(=O)N[C@H](C(=O)N[C@@H](CCCNC(=N)N)C(=O)N[C@@H](CCC(N)=O)C(=O)N[C@@H](CCCNC(=N)N)C(=O)N[C@@H](Cc1ccc(O)cc1)C(N)=O)[C@@H](C)O)C(C)C
B6: Compound 193 (peptide)
peptide: Isovaleryl-APEK([AEEA-AEEA-γGlu-C18 diacid])PEEDASEEEIQRYYVSLRHYYNWLTRQRY-NH2
SMILES: CC[C@H](C)[C@H](NC(=O)[C@H](CCC(=O)O)NC(=O)[C@H](CCC(=O)O)NC(=O)[C@H](CCC(=O)O)NC(=O)[C@H](CO)NC(=O)[C@H](C)NC(=O)[C@H](CC(=O)O)NC(=O)[C@H](CCC(=O)O)NC(=O)[C@H](CCC(=O)O)NC(=O)[C@@H]1CCCN1C(=O)[C@H](CCCCNC(=O)COCCOCCNC(=O)COCCOCCNC(=O)CC[C@H](NC(=O)CCCCCCCCCCCCCCCCC(=O)O)C(=O)O)NC(=O)[C@H](CCC(=O)O)NC(=O)[C@@H]1CCCN1C(=O)[C@H](C)NC(=O)CC(C)C)C(=O)N[C@@H](CCC(N)=O)C(=O)N[C@@H](CCCNC(=N)N)C(=O)N[C@@H](Cc1ccc(O)cc1)C(=O)N[C@@H](Cc1ccc(O)cc1)C(=O)N[C@H](C(=O)N[C@@H](CO)C(=O)N[C@@H](CC(C)C)C(=O)N[C@@H](CCCNC(=N)N)C(=O)N[C@@H](Cc1c[nH]cn1)C(=O)N[C@@H](Cc1ccc(O)cc1)C(=O)N[C@@H](Cc1ccc(O)cc1)C(=O)N[C@@H](CC(N)=O)C(=O)N[C@@H](Cc1c[nH]c2ccccc12)C(=O)N[C@@H](CC(C)C)C(=O)N[C@H](C(=O)N[C@@H](CCCNC(=N)N)C(=O)N[C@@H](CCC(N)=O)C(=O)N[C@@H](CCCNC(=N)N)C(=O)N[C@@H](Cc1ccc(O)cc1)C(N)=O)[C@@H](C)O)C(C)C

Target: T1, human neuropeptide Y2 receptor
Experiment: radioligand competition (125I-PYY(1-36)), hNPY2R membranes
How it was run: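 Commercial human Y2 receptor membranes (0.5 μg protein/well) were incubated with peptide for 2 h at room temperature in 50 mM HEPES, 5 mM MgCl₂, 1 mM CaCl₂, pH 7.4, with 0.2% ovalbumin. Bound radioligand was separated on PEI-soaked GF/C filters and counted by scintillation, and IC₅₀ came from nonlinear sigmoidal regression.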

Binder | Ki
B1 | 3.58 nM
B2 | 2.76 nM
B3 | 2.08 nM
B4 | 1.7 nM
B5 | 1.65 nM
B6 | 3.81 nM
